Laboratory results from patent US20170355774A1 (Regeneron, published 2017).
Values belong to the binder of their own block, whether it stands above or below them.

Tests used:
[1] = biological target: T1, human GITR (amino acids M1-V241, NCBI Accession #NP_004186.1) expressed on cells (human, UniProt Q9Y5U5 26-241); assay: cell-based or functional assay
T1 sequence: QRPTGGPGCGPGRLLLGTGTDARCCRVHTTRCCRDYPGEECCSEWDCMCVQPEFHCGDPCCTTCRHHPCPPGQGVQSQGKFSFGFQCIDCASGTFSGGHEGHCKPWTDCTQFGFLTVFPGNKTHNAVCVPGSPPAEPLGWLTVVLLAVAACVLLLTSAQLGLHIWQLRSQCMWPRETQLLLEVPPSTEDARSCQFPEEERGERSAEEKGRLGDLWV

[2] = biological target: T1, human GITR (amino acids M1-V241, NCBI …); assay: cell-based or functional assay; remark: listed apart in the source
hGITR.mmh = biological target: T2, hGITR.mmh (human); assay: SPR 37C, mAb capture
T2 construct: soluble monomeric construct; also called human (h) GITR.mmh; monomeric human GITR
T2 chain: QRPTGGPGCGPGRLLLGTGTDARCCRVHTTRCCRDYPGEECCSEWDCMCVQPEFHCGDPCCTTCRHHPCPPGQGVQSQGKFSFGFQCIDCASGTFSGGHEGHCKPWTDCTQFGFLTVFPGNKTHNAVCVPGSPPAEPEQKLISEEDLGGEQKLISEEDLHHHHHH

mfGITR.mmh = biological target: T3, mfGITR.mmh (Macaca fasicularis); assay: SPR 37C, mAb capture
T3 construct: soluble monomeric construct; also called Macaca fasicularis (mf) GITR.mmh; cynomolgus GITR protein
T3 chain: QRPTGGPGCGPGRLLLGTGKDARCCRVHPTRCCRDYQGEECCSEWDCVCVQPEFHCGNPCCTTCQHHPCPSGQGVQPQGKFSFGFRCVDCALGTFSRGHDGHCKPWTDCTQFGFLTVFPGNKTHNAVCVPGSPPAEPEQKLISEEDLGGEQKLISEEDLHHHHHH

hGITR.mFc = biological target: T4, hGITR.mFc (human); assay: SPR 37C, mAb capture
T4 construct: soluble dimeric construct with mouse Fc; also called dimeric human GITR
T4 chain: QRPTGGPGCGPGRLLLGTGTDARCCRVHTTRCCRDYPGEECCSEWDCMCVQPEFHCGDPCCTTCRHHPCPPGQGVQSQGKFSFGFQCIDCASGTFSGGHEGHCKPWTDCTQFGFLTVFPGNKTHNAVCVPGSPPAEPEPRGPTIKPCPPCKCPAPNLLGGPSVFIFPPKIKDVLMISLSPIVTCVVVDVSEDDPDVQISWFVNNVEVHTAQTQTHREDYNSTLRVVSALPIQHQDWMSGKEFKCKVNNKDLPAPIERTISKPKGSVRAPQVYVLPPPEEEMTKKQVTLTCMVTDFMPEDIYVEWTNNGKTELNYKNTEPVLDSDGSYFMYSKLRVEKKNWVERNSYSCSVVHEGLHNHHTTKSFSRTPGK

[3] = biological target: T1, human GITR (amino acids M1-V241, NCBI …); assay: cell-based or functional assay; remark: listed apart in the source
[4] = biological target: T1, human GITR (amino acids M1-V241, NCBI …); assay: ECL cell binding, hGITR/HEK293-D9
Summary of the method: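 Cells blocked with 2% BSA, then antibody dilutions from 1.7 pM to 100 nM added 1 h at RT. Bound antibody detected with SULFO-TAG anti-human kappa antibody, electrochemiluminescence read, RLU fitted by four-parameter logistic; signal at 100 nM on hGITR cells versus parental cells also recorded.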

[5] = biological target: T1, human GITR (amino acids M1-V241, NCBI …); assay: cell-based or functional assay; remark: listed apart in the source
[6] = biological target: T1, human GITR (amino acids M1-V241, NCBI …); assay: cell-based or functional assay; remark: listed apart in the source

% Activation, NF-kB-Luc, non-anchored [1]: 45%
% Blocking, NF-kB-Luc, non-anchored [1]: 70%
EC50, hGITR activation, NF-kB-Luc, non-anchored [1]: 0.8 nM
IC50, blocking of hGITRL stimulation, NF-kB-Luc, non-anchored [1]: 2.3 nM
fold activation, T-cell proliferation, 22 nM, non-anchored, donor 1 [2]: 0.7 fold
fold activation, T-cell proliferation, 22 nM, non-anchored, donor 2 [2]: 1.2 fold
fold activation, T-cell proliferation, 22 nM, non-anchored, donor 3 [2]: 1 fold
fold activation, T-cell proliferation, 22 nM, non-anchored, donor 4 [2]: 0.9 fold
fold activation, T-cell proliferation, 22 nM, non-anchored, mean [2]: 0.9 fold
Kd (hGITR.mmh): 32.7 nM
koff (hGITR.mmh): 0.00738 s⁻¹
kon (hGITR.mmh): 225000 M⁻¹ s⁻¹
t½ (hGITR.mmh): 1.6 min
Kd (mfGITR.mmh): 58.7 nM
koff (mfGITR.mmh): 0.0112 s⁻¹
kon (mfGITR.mmh): 190000 M⁻¹ s⁻¹
t½ (mfGITR.mmh): 1 min
Kd (hGITR.mFc): 1.08 nM
koff (hGITR.mFc): 0.00181 s⁻¹
kon (hGITR.mFc): 1.68e+06 M⁻¹ s⁻¹
t½ (hGITR.mFc): 6.4 min
fold activation, T-cell proliferation, plate-bound Ab 10.6 nM, donor 1 [3]: 1 fold
fold activation, T-cell proliferation, plate-bound Ab 10.6 nM, donor 2 [3]: 4 fold
fold activation, T-cell proliferation, plate-bound Ab 10.6 nM, donor 3 [3]: 4 fold
fold activation, T-cell proliferation, plate-bound Ab 10.6 nM, donor 4 [3]: 12 fold
fold activation, T-cell proliferation, plate-bound Ab 10.6 nM, donor 5 [3]: 4 fold
fold activation, T-cell proliferation, plate-bound Ab 10.6 nM, donor 6 [3]: 14 fold
fold activation, T-cell proliferation, plate-bound Ab 10.6 nM, donor 7 [3]: 4 fold
fold activation, T-cell proliferation, plate-bound Ab 10.6 nM, donor 8 [3]: 1 fold
fold activation, T-cell proliferation, plate-bound Ab 10.6 nM, mean [3]: 5 fold
Average Signal (RLU) at 100 nM [4]: 10300 RLU
EC50 [4]: 0.7 nM
fold activation, T-cell proliferation, 33 nM, FcgR anchored, donor 1 [5]: 1.2 fold
fold activation, T-cell proliferation, 33 nM, FcgR anchored, donor 2 [5]: 0.9 fold
fold activation, T-cell proliferation, 33 nM, FcgR anchored, donor 3 [5]: 1.2 fold
fold activation, T-cell proliferation, 33 nM, FcgR anchored, donor 4 [5]: 1.3 fold
fold activation, T-cell proliferation, 33 nM, FcgR anchored, donor 5 [5]: 1.1 fold
fold activation, T-cell proliferation, 33 nM, FcgR anchored, mean [5]: 1.1 fold
B1: H4H14516P (antibody, human IgG4, V domains shown)
VH: EVQLVESGGGLVQPGGSLRLSCAASGFTFSNYEMYWVRQAPGKGLEWVSYISSSGTTIYYADSVKGRFSVSRENARSSLYLQMNSLRVEDSAVYFCAKYNWNSFYGLDVWGQGTTVTVSS
VL: AIQMTQSPSSLSASVGDRVTITCRASQDIRNDLGWYQQKPGKAPKLLISAASSLQGGVPSRFSGSGSGTDFTLTISSLQPADFATYYCLQEYNYALTFGGGTKVEIK
notes: human IgG4 (H4H)

% Activation, NF-kB-Luc, non-anchored [1]: 70%
% Blocking, NF-kB-Luc, non-anchored [1]: -2%
EC50, hGITR activation, NF-kB-Luc, non-anchored [1]: 1 nM
fold activation, T-cell proliferation, 22 nM, non-anchored, donor 1 [2]: 0.7 fold
fold activation, T-cell proliferation, 22 nM, non-anchored, donor 2 [2]: 1.1 fold
fold activation, T-cell proliferation, 22 nM, non-anchored, donor 3 [2]: 0.8 fold
fold activation, T-cell proliferation, 22 nM, non-anchored, donor 4 [2]: 0.8 fold
fold activation, T-cell proliferation, 22 nM, non-anchored, mean [2]: 0.9 fold
Kd (hGITR.mmh): 45.7 nM
koff (hGITR.mmh): 0.014 s⁻¹
kon (hGITR.mmh): 307000 M⁻¹ s⁻¹
t½ (hGITR.mmh): 0.8 min
Kd (mfGITR.mmh): 41.7 nM
koff (mfGITR.mmh): 0.00765 s⁻¹
kon (mfGITR.mmh): 183000 M⁻¹ s⁻¹
t½ (mfGITR.mmh): 1.5 min
Kd (hGITR.mFc): 0.847 nM
koff (hGITR.mFc): 0.00135 s⁻¹
kon (hGITR.mFc): 1.6e+06 M⁻¹ s⁻¹
t½ (hGITR.mFc): 8.5 min
fold activation, T-cell proliferation, plate-bound Ab 10.6 nM, donor 1 [3]: 0 fold
fold activation, T-cell proliferation, plate-bound Ab 10.6 nM, donor 2 [3]: 2 fold
fold activation, T-cell proliferation, plate-bound Ab 10.6 nM, donor 3 [3]: 2 fold
fold activation, T-cell proliferation, plate-bound Ab 10.6 nM, donor 4 [3]: 2 fold
fold activation, T-cell proliferation, plate-bound Ab 10.6 nM, donor 5 [3]: 2 fold
fold activation, T-cell proliferation, plate-bound Ab 10.6 nM, donor 6 [3]: 12 fold
fold activation, T-cell proliferation, plate-bound Ab 10.6 nM, donor 7 [3]: 1 fold
fold activation, T-cell proliferation, plate-bound Ab 10.6 nM, donor 8 [3]: 0 fold
fold activation, T-cell proliferation, plate-bound Ab 10.6 nM, mean [3]: 3 fold
Average Signal (RLU) at 100 nM [4]: 7500 RLU
EC50 [4]: 8 nM
EC50, hGITR activation, NF-kB-Luc, FcgR anchored [6]: 0.04 nM
Fold Activation over basal signal, NF-kB-Luc, FcgR anchored [6]: 8 fold
IC50, blocking of hGITRL stimulation, NF-kB-Luc, FcgR anchored [6]: 0.2 nM
fold activation, T-cell proliferation, 33 nM, FcgR anchored, donor 1 [5]: 1 fold
fold activation, T-cell proliferation, 33 nM, FcgR anchored, donor 2 [5]: 1.3 fold
fold activation, T-cell proliferation, 33 nM, FcgR anchored, donor 3 [5]: 1.3 fold
fold activation, T-cell proliferation, 33 nM, FcgR anchored, donor 4 [5]: 1.6 fold
fold activation, T-cell proliferation, 33 nM, FcgR anchored, donor 5 [5]: 1.5 fold
fold activation, T-cell proliferation, 33 nM, FcgR anchored, mean [5]: 1.3 fold
B2: H4H14475P (antibody, human IgG4, V domains shown)
VH: QVQLVESGGGVVQPGRSLRLSCAASGTIFSTHGMHWVRQAPGKGLEWVAVISYDGNKKYYAGSVKGRFTISRDNSKNTLYLQMNDVRSEDTAVYHCTTDITGITDYWGQGTLVTVSS
VL: DIQMTQSPSSLSASVGDRVTITCRASQGIGNDLGWYQQKLGKAPKRLIYAASSLESGVPSRFSGSGSGTEFILTISSLQAEDFATYYCLQHNGFPTFGQGTKVEIK
notes: human IgG4 (H4H)

% Activation, NF-kB-Luc, non-anchored [1]: 20%
% Blocking, NF-kB-Luc, non-anchored [1]: 100%
EC50, hGITR activation, NF-kB-Luc, non-anchored [1]: 1.2 nM
IC50, blocking of hGITRL stimulation, NF-kB-Luc, non-anchored [1]: 0.7 nM
Average Signal (RLU) at 100 nM [4]: 4620 RLU
EC50 [4]: 0.25 nM
EC50, hGITR activation, NF-kB-Luc, FcgR anchored [6]: 0.02 nM
Fold Activation over basal signal, NF-kB-Luc, FcgR anchored [6]: 7 fold
IC50, blocking of hGITRL stimulation, NF-kB-Luc, FcgR anchored [6]: 0.1 nM
B3: H1H14512P (antibody, human IgG1, V domains shown)
VH: QVQLVESGGGVVQPGRSLRLSCAVSGFTLSSYGMDWVRQAPGKGLEWVAVIWYDGSNKYYSDSVKGRFTISRDNSKNTLFLQMNSLRADDTAVYYCARDGELGLDYYSGMDVWGQGTTVTVSS
VL: DIQMTQSPSSLSASVGDRVTITCRASQDIRNDLGWYQQKPGKAPKRLIYGASSLQSGVPSRFSGSGSGTEFTLTISSLQPEDFATYYCLQLNSYPRTFGQGTKVEIK
notes: human IgG1 (H1H)
